Reference: patent publication US20120108504A1 (TEMPLE UNIVERSITY OF THE COMMONWEALTH SYSTEM OF HIGHER …, published 2012)
Non-standard residues stand in square brackets, D forms with d. No end group written: not given here. *: point of attachment. αGalNAc = CC(=O)N[C@@H]1[C@@H](O)[C@@H](O)[C@@H](CO)O[C@@H]1*; Tyr(3,5-I2) = N[C@@H](Cc1cc(I)c(O)c(I)c1)C(=O)O; Ahx = NCCCCCC(=O)O

Target: T1, leptin receptor (ObR) (human, UniProt P48357 22-1165)
T1 sequence: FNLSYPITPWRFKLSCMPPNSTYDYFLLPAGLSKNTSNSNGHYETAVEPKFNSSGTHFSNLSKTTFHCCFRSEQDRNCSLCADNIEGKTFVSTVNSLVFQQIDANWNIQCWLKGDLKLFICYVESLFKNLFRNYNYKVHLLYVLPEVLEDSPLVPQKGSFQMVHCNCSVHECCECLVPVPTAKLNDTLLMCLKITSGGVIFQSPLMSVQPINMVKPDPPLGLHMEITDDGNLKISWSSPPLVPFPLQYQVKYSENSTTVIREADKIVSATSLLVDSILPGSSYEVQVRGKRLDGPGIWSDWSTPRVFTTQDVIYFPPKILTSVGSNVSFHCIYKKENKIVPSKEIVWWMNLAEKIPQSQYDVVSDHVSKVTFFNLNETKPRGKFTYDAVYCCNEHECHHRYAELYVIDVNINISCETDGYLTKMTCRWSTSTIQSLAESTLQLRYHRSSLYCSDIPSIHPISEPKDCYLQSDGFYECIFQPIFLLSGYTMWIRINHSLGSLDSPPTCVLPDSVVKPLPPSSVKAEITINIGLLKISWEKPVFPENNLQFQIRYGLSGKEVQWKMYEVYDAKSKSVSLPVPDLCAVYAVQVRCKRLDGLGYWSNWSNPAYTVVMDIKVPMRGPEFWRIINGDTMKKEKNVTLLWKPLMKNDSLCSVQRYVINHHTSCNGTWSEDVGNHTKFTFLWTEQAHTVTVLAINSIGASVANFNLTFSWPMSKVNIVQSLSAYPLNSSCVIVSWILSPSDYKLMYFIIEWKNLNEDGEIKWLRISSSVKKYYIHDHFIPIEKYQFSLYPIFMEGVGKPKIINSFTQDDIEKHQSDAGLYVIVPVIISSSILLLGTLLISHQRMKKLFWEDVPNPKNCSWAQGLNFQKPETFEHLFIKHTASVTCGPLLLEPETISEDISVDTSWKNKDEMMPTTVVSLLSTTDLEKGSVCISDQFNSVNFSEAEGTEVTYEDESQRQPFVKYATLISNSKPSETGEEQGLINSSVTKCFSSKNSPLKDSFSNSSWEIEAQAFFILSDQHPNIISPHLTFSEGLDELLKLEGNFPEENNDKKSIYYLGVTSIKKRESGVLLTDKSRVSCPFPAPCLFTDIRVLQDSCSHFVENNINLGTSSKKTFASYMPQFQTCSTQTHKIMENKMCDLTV
Experiment: cell-based or functional assay

B1: Compound (1) [Tyr(I2)-Ser-Thr(α-GalNAc)-Glu-Val-Val-Ala-Leu-Ser-Arg-AcpNH2] (peptide)
peptide: [Tyr(3,5-I2)]ST(αGalNAc)EVVALSR[Ahx]-NH2
EC50 (nM), proliferation of ObR-positive LN229 glioblastoma cells, no exogenous leptin: < 1 nM
IC50 (nM), inhibition of leptin-induced (12 nM leptin) proliferation of ObR-positive LN229 cells: 100 nM
